From paper PMC6854852

Assays:
[1] = test system: T1, SAN8-rBraR (unphosphorylated) D96V (Staphylococcus aureus SAN8 (nisin A-resistant mutant of MW2)), ORF:7b46c191; test: EMSA; conditions: EMSA: 5 ng DIG-labeled DNA, rBraR (given as 50 mM) in DIG Gel Shift Kit 2nd Generation (Roche) buffer, 6% native PAGE; binding temperature and pH not stated …
T1 sequence: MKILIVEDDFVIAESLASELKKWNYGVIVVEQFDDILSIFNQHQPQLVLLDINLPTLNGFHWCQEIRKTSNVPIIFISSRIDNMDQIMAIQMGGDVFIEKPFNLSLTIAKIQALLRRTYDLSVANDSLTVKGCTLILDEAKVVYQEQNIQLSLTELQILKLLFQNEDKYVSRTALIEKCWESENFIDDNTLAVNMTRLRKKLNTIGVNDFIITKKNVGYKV

[2] = test system: T1, SAN8-rBraR (unphosphorylated) D96V (Staphylococcus aureus SAN8 (nisin A-resistant mutant of MW2)), ORF:7b46c191; test: competition; conditions: EMSA: 5 ng DIG-labeled DNA, rBraR (given as 50 mM) in DIG Gel Shift Kit 2nd Generation (Roche) buffer, 6% native PAGE; binding temperature and pH not stated …

## ATCACTTAGAAAGCACCATTGCTTTTGTCTAATATGTACGATGAATCTGTATCCTCACTCAAAAATCTACTACGTAGCGATAGCTTTCAACTCTGTAAGGTTCAAACATTGAATTGTAAGTTTAGATAAAGGCTACTACTCCAAACATTATTTAAAATGAAATTAAATACAAAAGGAGTGAGACTATGACAATATTATCAGTGCAACATGTTTCAAAAACATACGG (double strand) [vraDE-F1]
[1]
  binding: binds
[2]
  binding: binds
